Measurements published in patent US20060252677A1 (published 2006).

Biological target: T1, His-tag fused human PJ01087 protein (Protein-Y) (human, UniProt O95886 1-979)
T1 construct: Used as 1% Triton-X supernatant of E. coli; also called His-PJ01087; not shown: N-terminal His-tag and linker encoded by vector pDEST17
T1 sequence: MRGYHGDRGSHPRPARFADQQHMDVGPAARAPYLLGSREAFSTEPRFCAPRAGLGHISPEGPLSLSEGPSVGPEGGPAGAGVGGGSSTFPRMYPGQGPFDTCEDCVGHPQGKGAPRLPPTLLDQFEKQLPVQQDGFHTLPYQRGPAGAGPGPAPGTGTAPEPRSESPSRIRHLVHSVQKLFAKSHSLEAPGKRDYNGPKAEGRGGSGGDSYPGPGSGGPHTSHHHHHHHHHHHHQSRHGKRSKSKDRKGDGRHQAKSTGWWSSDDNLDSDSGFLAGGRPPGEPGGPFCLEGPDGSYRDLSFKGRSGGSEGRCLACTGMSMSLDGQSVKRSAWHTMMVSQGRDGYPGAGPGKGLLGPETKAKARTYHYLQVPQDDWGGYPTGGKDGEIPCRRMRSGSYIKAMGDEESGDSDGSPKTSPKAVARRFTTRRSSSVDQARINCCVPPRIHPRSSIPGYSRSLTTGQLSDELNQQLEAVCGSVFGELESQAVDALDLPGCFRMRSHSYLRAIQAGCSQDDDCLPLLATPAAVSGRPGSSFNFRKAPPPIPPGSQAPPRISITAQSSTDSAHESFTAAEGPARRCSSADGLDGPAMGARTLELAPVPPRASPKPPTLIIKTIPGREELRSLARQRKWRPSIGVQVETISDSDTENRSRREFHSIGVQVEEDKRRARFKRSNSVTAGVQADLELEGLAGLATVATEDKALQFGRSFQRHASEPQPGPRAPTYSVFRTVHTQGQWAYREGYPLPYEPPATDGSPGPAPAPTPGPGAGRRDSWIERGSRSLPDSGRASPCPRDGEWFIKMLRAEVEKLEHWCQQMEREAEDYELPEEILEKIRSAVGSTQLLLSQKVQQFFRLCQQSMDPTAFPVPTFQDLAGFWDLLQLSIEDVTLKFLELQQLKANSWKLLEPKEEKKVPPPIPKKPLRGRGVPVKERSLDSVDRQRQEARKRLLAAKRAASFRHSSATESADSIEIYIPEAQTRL
Assay: Immunoprecipitation with anti-GST antibody and Protein G-sepharose, Western blot with anti-His-tag antibody
Method: After adding 1 μl of anti-GST antibody (SIGMA) and agitating for 1 hour at 4° C., a further 30 μl of Protein G-sepharose was added thereto, and agitation proceeded for an additional 6 hours at 4° C. Thereafter, the supernatant was removed by centrifugation, and Protein G-sepharose was washed three times with 500 μl of 1% Triton-X/20 mM Tris (pH 7.4). After the washes, 30 μl of 2× sample buffer (2% SDS/50 mM Tris (pH 6.8)/30% glycerol/0.01% bromophenol blue) containing 2-mercaptoethanol was added to Protein G-sepharose and mixed. The samples were boiled for 2 minutes, subjected to electrophoresis on a 5%-20% polyacrylamide gel, and transferred onto a PVDF membrane. Then Western blotting was performed with anti-GST antibodies and anti-His-tag antibodies.
However, when Protein-Y (His-PJ01087) was reacted with Protein-X (GST-hj02537) or the Protein-X mutant (GST-hj (GK−)) to perform immunoprecipitation with an anti-GST antibody followed by detecting with an anti-His-tag antibody, no band showing Protein-Y was detected. Thus, no result showing that binding of Protein-Y to Protein-X exists could be obtained (lanes 5 or 6 in FIG. 23).

binding result: no binding
B1: GST fused novel PSD (Protein-X) (hj02537) (other, not shown: a dimerising Fc or GST)
chain: MPALSTGSGSDTGLYELLAALPAQLQPHVDSQEDLTFLWDMFGEKSLHSLVKIHEKLHYYEKQSPVPILHGAAALADDLAEELQNKPLNSEIRELLKLLSKPNVKALLSVHDTVAQKNYDPVLPPMPEDIDDEEDSVKIIRLVKNREPLGATIKKDEQTGAIIVARIMRGGAADRSGLIHVGDELREVNGIPVEDKRPEEIIQILAQSQGAITFKIIPGSKEETPSKEGKMFIKALFDYNPNEDKAIPCKEAGLSFKKGDILQIMSQDDATWWQAKHEADANPRAGLIPSKHFQERRLALRRPEILVQPLKVSNRKSSGFRRSFRLSRKDKKTNKSMYECKKSDQYDTADVPTYEEVTPYRRQTNEKYRLVVLVGPVGVGLNELKRKLLISDTQHYGVTVPHTTRARRSQESDGVEYIFISKHLFETDVQNNKFIEYGEYKNNYYGTSIDSVRSVLAKNKVCLLDVQPHTVKHLRTLEFKPYVIFIKPPSIERLRETRKNAKIISSRDDQGAAKPFTEEDFQEMIKSAQIMESQYGHLFDKIIINDDLTVAFNELKTTFDKLETETHWVPVSWLHS
notes: Crude 1% Triton-X E. coli supernatant used for immunoprecipitation; also called GST-hj02537
